# Measurements as given in the supplement of paper PMC10126150.
# ± gives the standard deviation of the averaged measurements.
# Tested on: ATP
# Test: switch fluorescence ratio, 500 uM ATP over buffer (Cy3 cluster intensity, sum of 5 cycles each) (fold (ratio)); higher = stronger signal-on switching upon ATP binding; sequences stand for … in TCGTCGGCAGCGTCAGATGTGTATAAGAGACAGTTTTTTTTTTTTTTTTTTTTTTTTT…TC
# Conditions: aptamer strand: ATP DNA aptamer (quencher-CACCTGGGGGAGTATTGCGGAGGAAGG + anchor), 100 nM annealed; ATP concentration: 500 uM
# In short: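 Clusters carrying Cy3-labelled switching strands on a modified Illumina MiSeq flow-cell were annealed to 100 nM quencher-labelled ATP aptamer and imaged in selection buffer. They were imaged again after 15 min with 500 uM ATP at 22 °C, over five buffer/ATP cycles with NaOH stripping and re-annealing in between. For each cluster, the fluorescence ratio is the summed Cy3 intensity of the target cycles divided by that of the buffer cycles, averaged per switch-domain sequence. Clusters outside 100-1000 RFU were left out.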
# 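Note: ATP exposure 15 min at 22 °C before imaging.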
row,Sequence,switch fluorescence ratio
1,GTGATACCGT,0.99 ± 0.0087
2,GTAGTAGGGG,0.999 ± 0.015
3,CCTGGTGGAC,1.11 ± 0.058
4,TGGGGGCCCG,0.995 ± 0.047
5,GAGGTCGCGC,1.01 ± 0.043
6,GTTGTGGGCG,0.977 ± 0.12
7,GTAAAAAGAG,1 ± 0.011
8,TAAATGCCGG,1.14 ± 0.26
9,ACATTTGCAG,1.02 ± 0.033
10,TGTGTGAGTG,0.981 ± 0.054
11,GTTTTTCTTT,0.988 ± 0.024
12,GGTATTCATT,0.995 ± 0.036
13,TGTAGGGGAA,0.996 ± 0.011
14,ATAAGGAGTT,1.01 ± 0.045
15,GTAGTGGCGA,1.04 ± 0.026
16,ATTTTGATGT,0.995 ± 0.051
17,TTTCGGGGGG,1.02 ± 0.037
18,TTTGGAAAGT,0.991 ± 0.025
19,TTTATTGGCG,1.01 ± 0.035
20,TCTTTTTGCA,1.03 ± 0.014
21,AATAATCAGT,1.05 ± 0.033
22,CGAGCGGGTA,0.989 ± 0.028
23,TCTGGTCCGG,0.997 ± 0.015

row,Sequence,switch fluorescence ratio
1,GGTTAGTATG,1.01 ± 0.027
2,CGAGTGGCGG,0.968 ± 0.023
3,TATTTAGGTG,1.11 ± 0.018
4,TTCTGCGTGC,1.85 ± 1.5
5,TTTAAATTAA,0.9938 ± 0.0026
6,TACGTGGGGT,1.01 ± 0.018
7,CCGGACAGGT,1.13 ± 0.023
8,TGAGTTTTTA,0.9956 ± 0.0072
9,CGGAACCACG,1.08 ± 0.045
10,AGTCCTTATT,0.977 ± 0.021
11,ATGGGCACGG,0.99 ± 0.025
12,TGAGGTATAT,1.01 ± 0.015
13,TAAAAAGTAT,1 ± 0.015
14,TTCATATTCA,1.01 ± 0.023
15,GGCATTTTTC,0.999 ± 0.021
16,GGTGGTGGAC,0.992 ± 0.037
17,GGGGTTTTTT,0.986 ± 0.026
18,TTGGGGTGCG,0.995 ± 0.011
19,GGTTACGGTA,1.04 ± 0.031
20,AATTGGAAGG,0.993 ± 0.012
21,TAGGTGTTTG,0.999 ± 0.018
22,CAATGGAGGC,0.976 ± 0.072
23,TCGTTTTATT,0.9925 ± 0.0076

row,Sequence,switch fluorescence ratio
1,TGAGAGGATG,0.99 ± 0.021
2,GCGTTAGTAC,1.09 ± 0.031
3,TATTGCTGCT,0.983 ± 0.032
4,GAGGTTCATT,1.09 ± 0.085
5,GGAGGGGTGC,1.04 ± 0.032
6,ACGGATATTA,1.01 ± 0.0031
7,ACCATGGGCC,1.01 ± 0.018
8,TATATAAAGA,1.03 ± 0.035
9,CTTTTCTTCA,1.01 ± 0.046
10,GTTGTTATTG,1.01 ± 0.021
11,TCATAGCGGT,1.095 ± 0.0014
12,TCCAATGATG,1.03 ± 0.018
13,AGAATGCTTT,0.9971 ± 0.0034
14,GGGGTTTGTC,0.95 ± 0.049
15,TTGGGGTTGT,1.03 ± 0.12
16,TATGATTGGG,1.008 ± 0.0013
17,GGGGGTTCTA,1.02 ± 0.011
18,GGGAATCTTC,1.01 ± 0.034
19,TGAGCAGCTG,0.953 ± 0.058
20,TGGGAGAGTC,0.989 ± 0.047
21,CATTGACATT,1.06 ± 0.026
22,GGGGAGGTTC,1 ± 0.031
23,GGCTTGCCTC,1.023 ± 0.0069

row,Sequence,switch fluorescence ratio
1,GCTCAAGTGC,1.07 ± 0.032
2,AACGGTGTTT,1.03 ± 0.045
3,GACTTTGGCA,0.983 ± 0.034
4,AATGCCAAGG,1 ± 0.03
5,GGTATTCAGG,1.03 ± 0.018
6,AGAGGCTGTT,1.03 ± 0.041
7,ATCCAAGATT,1 ± 0.019
8,ATTTTTTAAA,0.994 ± 0.027
9,AACCGTAGTC,1.15 ± 0.049
10,AATAAATTTA,1 ± 0.016
11,TTTAGGAAAA,1 ± 0.029
12,ATGCGCAGCG,1.04 ± 0.035
13,TCGGGAGTTG,0.952 ± 0.024
14,GGTGGCTAGC,1 ± 0.044
15,GCGGATTCGG,0.9551 ± 0.0048
16,AGTCCTAGGT,1.03 ± 0.022
17,TAGTCGCGTA,1.05 ± 0.035
18,ATAAGAGGAG,0.995 ± 0.022
19,AGGCCTAACG,0.995 ± 0.01
20,TAGGATGTCT,1 ± 0.0021
21,CCAGGAAACG,0.99 ± 0.072
22,TTTGCTTTTT,1 ± 0.036
23,ACGGCTAAGG,1.06 ± 0.029

row,Sequence,switch fluorescence ratio
1,TGGTGTCGGG,0.998 ± 0.013
2,AGTTTCGCGG,0.9632 ± 0.0037
3,TTACGATGGT,1.003 ± 0.0032
4,GCCGTAGCTG,1.02 ± 0.037
5,AGTGCTTTTG,0.978 ± 0.018
6,TTGTTTTCTG,1.02 ± 0.047
7,CAGGTTGGGG,1.03 ± 0.054
8,TTGGGATACG,1.18 ± 0.23
9,TTGATATGGT,0.997 ± 0.022
10,TGCCTGTCTA,1.02 ± 0.018
11,CTCTATAACT,1.0133 ± 0.00043
12,GACTTGAGGT,1.03 ± 0.025
13,GGTATTAAGG,1.02 ± 0.013
14,GGCGGGTGGG,1.03 ± 0.089
15,CGAGCCCTTG,1.027 ± 0.0065
16,CTTAGCTAGA,1.0428 ± 0.00056
17,AGACCTTCTT,1.51 ± 0.025
18,ATCTGGGGGG,1 ± 0.064
19,TGAGTGTGTT,0.962 ± 0.026
20,TTTCGGTCGT,1.03 ± 0.074
21,TCCCGGCCTG,1.012 ± 0.0041
22,CATGAGTAAG,1 ± 0.015
23,AGGGTGAGGC,0.992 ± 0.06

row,Sequence,switch fluorescence ratio
1,GCTGTCAATC,1.11 ± 0.053
2,GATATTTAAG,0.988 ± 0.042
3,CGGTGTGGGG,1.01 ± 0.032
4,CCATGGGGGT,1.16 ± 0.14
5,CTAGTGCTTG,1.008 ± 0.0032
6,TAAGGAAAAG,1.01 ± 0.05
7,AAAATGGTGC,1.06 ± 0.065
8,GATACATTGC,1.07 ± 0.029
9,TTTGGGGGCC,1.009 ± 0.0061
10,AAATGAAAAA,0.99 ± 0.091
11,GACGAGCGGT,1.3 ± 0.22
12,GGGCTAGGGG,0.994 ± 0.029
13,ATGCGGTCCT,1.02 ± 0.016
14,TGAGATAAGG,0.987 ± 0.03
15,CGGACGGGGG,0.999 ± 0.036
16,TAGAGAGGAG,1.03 ± 0.021
17,GGAATCTGGG,0.983 ± 0.05
18,ATCGTTGGG,1.01 ± 0.055
19,AGGATTTTAG,1.002 ± 0.0049
20,TTGCGGTGGG,1.03 ± 0.018
21,GCTTTATGCT,0.9714 ± 0.0025
22,AAAATACGGG,1.21 ± 0.21
23,GGTTTGCAGT,1.003 ± 0.0093

row,Sequence,switch fluorescence ratio
1,AAGTTATGTT,1.02 ± 0.028
2,CTAGGCAATG,1.44 ± 0.67
3,TGTTTCTCTG,1.01 ± 0.023
4,AGTTTAAGGA,1.01 ± 0.025
5,AGGGTCTTTA,0.999 ± 0.012
6,TTAGTTTTAG,1.008 ± 0.0056
7,GCGTTCATGG,1.04 ± 0.0093
8,TTGGGTCGAT,0.985 ± 0.024
9,GCGGTGTTGG,0.9887 ± 0.006
10,AGGGTGAGCG,0.997 ± 0.022
11,CCTGTATTTT,1.011 ± 0.0077
12,CAGGACGGGG,1.01 ± 0.038
13,TGGGATCGCT,1.038 ± 0.0056
14,GGGGATAAGT,1.04 ± 0.054
15,TTAGGGTGAA,1.02 ± 0.032
16,GGGTAGGGTG,1.04 ± 0.055
17,GTTCAAGGAA,0.9937 ± 0.0036
18,GGGCATAGG,1.008 ± 0.0014
19,AAAGAGCCTT,1.13 ± 0.2
